Experimental data reported in paper PMC7184779.

Target: SADS-CoV papain-like protease 2 (PLP2) domain of nsp3, wild type (SADS-CoV)

For “ubiquitin-AMC (from UniProt P0CG48 1-76) (natural protein)”, the kcat/Km of hydrolysis of Ub-AMC (AMC fluorescence, Michaelis-Menten fit) was 62700 M⁻¹ s⁻¹.
